Publication PMC4162137

How the values were obtained:
[1] = biological target: TMPRSS2-ERG8 encoded protein (Type II ERG) fused to an N- or C-terminal fragment of Venus (human); experiment: split reporter (BiFC, NanoBiT); BiFC with split Venus in HEK293 cells, 24 hours after transfection, percent of fluorescent cells counted by flow cytometry
[2] = biological target: TMPRSS2-ERG3 encoded protein (Type I ERG) fused to an N- or C-terminal fragment of Venus (human) (UniProt P11308)
[3] = biological target: TMPRSS2-ERG3 encoded protein (Type I ERG) fused to an N- or C-terminal fragment of Venus (human) (UniProt P11308); experiment: split reporter (BiFC, NanoBiT); BiFC with split Venus in HEK293 cells, 24 hours after transfection, percent of fluorescent cells counted by flow cytometry

Sequence of TMPRSS2-ERG8 encoded protein (Type II ERG) fused to an N- or C-terminal fragment of Venus (human) (P11308 whole entry, the tested form may be a part): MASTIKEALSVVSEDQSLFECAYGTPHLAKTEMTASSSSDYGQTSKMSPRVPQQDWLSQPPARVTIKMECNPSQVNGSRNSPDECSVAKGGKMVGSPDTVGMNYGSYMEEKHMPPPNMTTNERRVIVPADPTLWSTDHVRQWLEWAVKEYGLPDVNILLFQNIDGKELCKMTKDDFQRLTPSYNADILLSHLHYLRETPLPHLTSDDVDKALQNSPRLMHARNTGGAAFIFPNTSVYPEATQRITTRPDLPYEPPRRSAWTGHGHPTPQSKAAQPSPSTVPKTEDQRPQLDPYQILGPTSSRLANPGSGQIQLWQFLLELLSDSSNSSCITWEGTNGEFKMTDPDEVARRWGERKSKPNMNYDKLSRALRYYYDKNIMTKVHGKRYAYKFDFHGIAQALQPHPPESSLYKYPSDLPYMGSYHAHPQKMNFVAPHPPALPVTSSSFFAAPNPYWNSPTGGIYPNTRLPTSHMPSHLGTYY

Substance | percent of cells positive for fluorescence (% cells positive for fluorescence) [1] | mef2c enhancer luciferase reporter in HEK293 cells: 40 ng TM-ERG3 with 0-40 ng TM-ERG8 plasmid; reduction in luciferase activity against TM-ERG3 alone (at 20 ng or 40 ng TM-ERG8) (% reduction in luciferase activity) [2] | percent of cells positive for fluorescence (% cells positive for fluorescence) [3] | percent of cells positive for fluorescence (% positive cells) [1]
TMPRSS2-ERG3 encoded protein (Type I ERG) fused to an N- or C-terminal fragment of Venus (from UniProt P11308-4 33-479) (natural protein) | 10.1 |  |  | 
TMPRSS2-ERG8 encoded protein (Type II ERG) fused to an N- or C-terminal fragment of Venus (natural protein) |  | 50 | 12.7 | 5.4
